Earlier results on one substance are cited in PMC4519920.

pKd: −log10 of the molar value.

The data set has as its target hsp70 (UniProt P0DMV8).
Sequence of UniProt P0DMV8 (P0DMV8 2-641): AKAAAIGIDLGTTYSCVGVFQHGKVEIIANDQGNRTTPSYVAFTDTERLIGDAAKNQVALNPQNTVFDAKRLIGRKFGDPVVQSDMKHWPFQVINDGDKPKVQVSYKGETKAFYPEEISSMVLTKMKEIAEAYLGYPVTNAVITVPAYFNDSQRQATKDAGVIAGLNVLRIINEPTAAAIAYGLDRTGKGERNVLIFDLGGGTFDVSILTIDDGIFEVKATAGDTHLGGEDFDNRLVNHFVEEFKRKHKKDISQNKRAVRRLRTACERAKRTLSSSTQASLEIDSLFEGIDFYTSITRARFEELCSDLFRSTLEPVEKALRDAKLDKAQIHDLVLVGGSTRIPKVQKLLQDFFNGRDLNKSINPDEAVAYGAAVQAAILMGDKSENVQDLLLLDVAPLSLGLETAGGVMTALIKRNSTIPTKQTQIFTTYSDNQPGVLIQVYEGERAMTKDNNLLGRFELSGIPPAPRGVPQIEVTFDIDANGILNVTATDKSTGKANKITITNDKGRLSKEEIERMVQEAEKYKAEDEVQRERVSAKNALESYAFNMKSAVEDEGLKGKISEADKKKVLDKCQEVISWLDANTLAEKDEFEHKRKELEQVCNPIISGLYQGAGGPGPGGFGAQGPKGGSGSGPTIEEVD

As a reminder, the pKd is −log10 of the Kd, conventionally taken in molar units. Regarding “Nucleoprotein NTAIL Box2 (from UniProt P35972)”, the pKd is 8.00.
